According to patent publication US20250339558A1:

Molecular target: CD20 (UniProt P11836)
Test: cell-based or functional assay

UniProt P11836, sequence (P11836 whole entry): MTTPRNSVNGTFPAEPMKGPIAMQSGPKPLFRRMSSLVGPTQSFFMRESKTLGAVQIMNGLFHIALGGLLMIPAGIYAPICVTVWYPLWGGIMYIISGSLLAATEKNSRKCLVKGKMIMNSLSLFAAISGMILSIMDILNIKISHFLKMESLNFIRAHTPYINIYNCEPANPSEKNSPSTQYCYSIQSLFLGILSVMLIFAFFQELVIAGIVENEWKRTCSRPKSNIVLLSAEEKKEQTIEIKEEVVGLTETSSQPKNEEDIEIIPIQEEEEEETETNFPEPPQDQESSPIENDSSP

Rituximab (antibody) gave a CDC Depletion Efficiency (complement-dependent cytotoxicity killing) of 60%.
